Assays:
Type in all cases: cell-based
Settings in all cases: forskolin 0.3 μM, 24 hours with sample
human GPR40 = biological target: T1, human GPR40 (Homo sapiens, UniProt O14842); assay: PLAP reporter transcription activity in GPR40-SE302 cells
T1 construct: expressed in transfected cells; host or cells: SE302 cells (HEK293 clone carrying a CRE4-VIP promoter PLAP reporter), infected with retrovirus made from pBabeCL(GPR40)IH and selected with hygromycin
Method: (§1) The GPR40-SE302 cells and GPR43-SE302 cells constructed in Examples 6 and 7 described above were suspended in a culture medium for measurement of transcription activity (DMEM containing FBS, which was heat-treated at 65° C. for 30 min, at a final concentration of 10%) and seeded onto a 96 well plate (Becton Dickinson, Co.) at 1×10^4 cells/well. In addition, as control cells, SE302 cells expressing green fluorescent protein (GFP, Invitrogen Corporation) (referred to as “GFP-SE302 cells” hereinafter) were used. Specifically, GFP-302 cells were prepared by obtaining a virus for expressing GFP using the method shown in Example 3 and 4, and transfecting SE302 cells with the virus using the method shown in Example 6. Cells were cultured for 24 hours after seeding, and forskolin prepared at a final concentration of 0.3 μM and a sample were added. Cells were cultured for another 24 hours, and 5 μL of the cell supernatant was recovered and transferred to a polypropylene 384-well white plate (Nalge Nunc International, Co.). Then, 20 μL of the assay buffer (280 mmol/L Na2CO3—NaHCO3, 8 mmol/L MgSO4, pH 10) and 25 μL of Lumiphos530 (Lumigen, Co.) were added. Following a 2-hour reaction at room temperature, chemiluminescence in each well was measured using a Fusion plate reader (Perkin Elmer, Co.) and was defined as the transcription activity. Based on these measured levels, stimulation/inhibition of transcription activity was calculated using the equation (I) shown below and described as [% of control]. Activities of the group with a sample added were calculated using the level of a control placed on each plate. [% of control]=(X−C)/(F−C)×100 (I) wherein,
(§2) X: PLAP transcription activity in the group added with a sample,
(§3) F: Mean level of transcription activity in 2 wells of a positive control (no sample added, stimulated with forskolin), and
(§4) C: Mean level of transcription activity in 2 wells of a negative control (no sample added, not stimulated with forskolin).

GFP-SE302 cells = assay: PLAP reporter transcription activity in GFP-SE302 control cells
Method: as §1, §2, §3, §4

human GPR43 = biological target: T2, human GPR43 (Homo sapiens, UniProt O15552); assay: PLAP reporter transcription activity in GPR43-SE302 cells
T2 construct: expressed in transfected cells; host or cells: SE302 cells (HEK293 clone carrying a CRE4-VIP promoter PLAP reporter), infected with retrovirus made from pBabeCL(GPR43)IH and selected with hygromycin
T2 sequence (O15552 1-330): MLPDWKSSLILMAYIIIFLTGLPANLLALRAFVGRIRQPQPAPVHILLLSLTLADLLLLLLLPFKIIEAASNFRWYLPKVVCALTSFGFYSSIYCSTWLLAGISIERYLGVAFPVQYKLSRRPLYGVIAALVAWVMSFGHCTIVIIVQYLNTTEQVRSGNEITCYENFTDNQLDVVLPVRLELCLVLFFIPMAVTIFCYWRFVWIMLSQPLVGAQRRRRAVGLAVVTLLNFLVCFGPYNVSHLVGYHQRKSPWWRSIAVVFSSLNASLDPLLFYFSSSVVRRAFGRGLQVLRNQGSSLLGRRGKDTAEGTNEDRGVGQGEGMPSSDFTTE
Method: as §1, §2, §3, §4

T1 sequence (O14842 whole entry): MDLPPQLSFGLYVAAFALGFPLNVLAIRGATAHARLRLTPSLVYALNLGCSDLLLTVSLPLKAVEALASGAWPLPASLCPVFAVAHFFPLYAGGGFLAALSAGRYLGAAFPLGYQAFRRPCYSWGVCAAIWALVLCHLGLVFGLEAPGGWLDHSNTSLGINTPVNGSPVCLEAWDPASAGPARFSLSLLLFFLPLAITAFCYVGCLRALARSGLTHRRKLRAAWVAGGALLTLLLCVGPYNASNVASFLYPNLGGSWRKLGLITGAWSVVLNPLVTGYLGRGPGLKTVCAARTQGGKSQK

Molecule: porcine pancreatic sPLA2: Phospholipase A2 from porcine pancreas, Sigma; primarily Group IB secretory phospholipase A2 (Swiss Prot P00592)
- PLAP activity in GPR40-SE302 cells (human GPR40): concentration dependent elevation of PLAP activity
- PLAP activity in GFP-SE302 cells (GFP-SE302 cells): no elevation of PLAP activity
- PLAP activity in GPR43-SE302 cells (human GPR43): no elevation of PLAP activity

B1: mGX-sPLA2-His: purified mouse C-terminal His-tagged Group X secretory phospholipase A2, expressed in Sf9 cells (protein, UniProt Q9QXX3 29-151, looked up)
Group 10 secretory …: GLLELAGTLDCVGPRSPMAYMNYGCYCGLGGHGEPRDAIDWCCYHHDCCYSRAQDAGCSPKLDRYPWKCMDHHILCGPAENKCQELLCRCDEELAYCLAGTEYHLKYLFFPSILCEKDSPKCN
modifications: C-terminal His6 tag
notes: purified mouse C-terminal His-tagged Group X secretory phospholipase A2, expressed in Sf9 cells
- PLAP activity in GPR40-SE302 cells (human GPR40): concentration dependent elevations of PLAP activity
- PLAP activity in GFP-SE302 cells (GFP-SE302 cells): no specific elevation of PLAP activity

B2: C-terminal FLAG tagged mGX-sPLA2: C-terminal FLAG-tagged mouse GX-sPLA2 (SEQ ID NO: 43), purified from Sf-9 culture supernatant (protein, listed as Mus musculus)
chain: MLLLLLLLLLGPGPGFSEATRRSHVYKRGLLELAGTLDCVGPRSPMAYMNYGCYCGLGGHGEPRDAIDWCCYHHDCCYSRAQDAGCSPKLDRYPWKCMDHHILCGPAENKCQELLCRCDEELAYCLAGTEYHLKYLFFPSILCEKDSPKCNDYKDDDDK
modifications: C-terminal FLAG tag
- PLAP activity in GPR40-SE302 cells (human GPR40): concentration-dependent elevation of PLAP activity
- PLAP activity in GFP-SE302 cells (GFP-SE302 cells): no elevation of PLAP activity
- PLAP activity in GPR43-SE302 cells (human GPR43): no elevation of PLAP activity

B3: hGX-sPLA2-His: purified human C-terminal His-tagged Group X secretory phospholipase A2, expressed in Sf9 cells (protein, UniProt O15496 43-165, looked up)
Group 10 secretory …: GILELAGTVGCVGPRTPIAYMKYGCFCGLGGHGQPRDAIDWCCHGHDCCYTRAEEAGCSPKTERYSWQCVNQSVLCGPAENKCQELLCKCDQEIANCLAQTEYNLKYLFYPQFLCEPDSPKCD
modifications: C-terminal His6 tag
notes: purified human C-terminal His-tagged Group X secretory phospholipase A2, expressed in Sf9 cells
- PLAP activity in GPR40-SE302 cells (human GPR40): concentration dependent elevations of PLAP activity
- PLAP activity in GFP-SE302 cells (GFP-SE302 cells): no specific elevation of PLAP activity

B4: C-terminal FLAG tagged hGX-sPLA2: C-terminal FLAG-tagged human GX-sPLA2 (SEQ ID NO: 41), purified from silkworm pupa extract (protein, listed as Homo sapiens)
chain: MGPLPVCLPIMLLLLLPSLLLLLLLPGPGSGEASRILRVHRRGILELAGTVGCVGPRTPIAYMKYGCFCGLGGHGQPRDAIDWCCHGHDCCYTRAEEAGCSPKTERYSWQCVNQSVLCGPAENKCQELLCKCDQEIANCLAQTEYNLKYLFYPQFLCEPDSPKCDDYKDDDDK
modifications: C-terminal FLAG tag
- PLAP activity in GPR40-SE302 cells (human GPR40): concentration-dependent elevation of PLAP activity
- PLAP activity in GFP-SE302 cells (GFP-SE302 cells): no elevation of PLAP activity
- PLAP activity in GPR43-SE302 cells (human GPR43): no elevation of PLAP activity

— patent publication US8252521B2, “Method of screening substance useful in treating disease with the use of GPR40 and phospholipase” (Eisai R&D Management Co., Ltd., priority 2005, dated 2012)
